How the values were obtained:
[1] = In vivo pharmacokinetic study in Beagle dogs (i.v. or s.c.), FAC and payload in blood; set-up: species or system dog; conditions: analyte payload after FAC i.v. dose 1 umol/kg
Experimental: (§1) Pharmacokinetic studies were conducted in male C57/B16 mice; male Sprague-Dawley rats; male Beagle dogs and male Cynomolgus monkeys. 3 animals per group were used for each study performed. All studies were performed in accordance with local animal welfare regulations.
(§2) Between 1 and 10 µM/kg FAC was administered either intravenously or subcutaneously as a solution in 10 mM PBS with NaOH (dose volume 0.4 mL/kg in dog and monkey s.c. and 0.2 mL/kg i.v. in monkey). Serial 100 µL blood samples were collected via venipuncture of the cephalic vein at defined timepoints to 336 hours (into EDTA coated tubes).
(§3) Each blood sample was precipitated with acetonitrile containing internal standard; samples were mixed and centrifuged (20 minutes 4000 RPM at 4° C.). Supernatant was transferred to a microwell plate and evaporated under nitrogen at 60° C. Residue was resuspended in acetonitrile/water (7:3 v/v); plate sealed and transferred to an ultrasonic bath for 3 minutes, prior to analysis. Quantification was performed by LC-MS/MS (SciexAP16500 Q-trap, Shimadzu Nexera X2) using a Phenomenex Polar RP analytical column (2.5 μm particle size; 50×2 mm). The mobile phase consisted of solvent A (0.1% formic acid in water) and solvent B (0.1% formic acid in acetonitrile). The fatty acid conjugate and API were detected using multiple reaction monitoring.
(§4) Data analysis and calculation of non-compartmental pharmacokinetic parameters was
(§5) performed using an in-house analysis. Following intravenous administration whole blood clearance was calculated by the dose administered divided by AUC0-inf. Volume of distribution at steady state was calculated as MRT*CL, where MRT is the mean residence time, calculated by AUMC0-inf/AUC0-inf. The half-life (t1/2) of the terminal elimination phase was calculated by 0.693/λ. For both intravenous and subcutaneous administration, the systemic exposures were determined by calculating the area under the blood concentration time curve (AUC) from time zero to the last observed quantifiable concentration (AUClast) by using the linear trapezoidal method and normalised to dose. Extrapolated AUC (AUC0-inf) is calculated by addition of AUClast and AUCtlast-inf; where AUCtlast-inf is calculated based on Clast/λ. The slope of the terminal elimination phase was estimated by linear regression of the terminal data points (minimum 3 points) from a natural log concentration versus time plot of the data. Bioavailability was calculated as the dose normalized ratio of […] AUCinf to intravenous AUCinf (100*[SC AUCinf/SC dose]/[IV AUCinf/IV dose]). Following subcutaneous administration Cmax is calculated as the average maximum observed peak concentration and Tmax is the time associated with the determined Cmax.

[2] = BTK FAC plasma stability assay, PBS buffer arm; assay type: physicochemical; conditions: for Plasma stability (h) PBS: incubation to 24 h
Summary of the method: (§6)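 Stability in PBS buffer or EDTA-treated plasma is followed over 24 h at 38 °C with shaking. Protein precipitation with acetonitrile (glyburide 0.2 µM as internal standard) stops each timepoint, and LC-MS/MS gives analyte-to-standard area ratios.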

[3] = BTK FAC plasma stability assay, rat plasma; assay type: in vitro ADME; conditions: for Plasma stability (h) rat: incubation to 24 h
Summary of the method: as §6

[4] = In vivo pharmacokinetic study in Cynomolgus monkeys (i.v. or s.c.), FAC and payload in blood; set-up: species or system cynomolgus monkey; conditions: analyte FAC, FAC i.v. dose 1 umol/kg
Experimental: as §1, §2, §3, §4, §5

[5] = BTK FAC plasma stability assay, mouse plasma; assay type: in vitro ADME; conditions: for Plasma stability (h) mouse: incubation to 24 h
Summary of the method: as §6

[6] = BTK FAC plasma stability assay, dog plasma; assay type: in vitro ADME
[7] = BTK FAC plasma stability assay, cyno plasma; assay type: in vitro ADME, cynomolgus monkey
BTK C481S = target: T1, BTK C481S (Homo sapiens, UniProt Q06187, C481S); test: PD screen in TMD8 BTK C481S mutant tumor-bearing mice, BTK levels and compound concentrations in blood and tumor; assay type: in vivo, mouse
T1 construct: endogenous in cells; host or cells: TMD8 BTK C481S mutant tumour xenografts in mice
T1 sequence (Q06187 whole entry C481S): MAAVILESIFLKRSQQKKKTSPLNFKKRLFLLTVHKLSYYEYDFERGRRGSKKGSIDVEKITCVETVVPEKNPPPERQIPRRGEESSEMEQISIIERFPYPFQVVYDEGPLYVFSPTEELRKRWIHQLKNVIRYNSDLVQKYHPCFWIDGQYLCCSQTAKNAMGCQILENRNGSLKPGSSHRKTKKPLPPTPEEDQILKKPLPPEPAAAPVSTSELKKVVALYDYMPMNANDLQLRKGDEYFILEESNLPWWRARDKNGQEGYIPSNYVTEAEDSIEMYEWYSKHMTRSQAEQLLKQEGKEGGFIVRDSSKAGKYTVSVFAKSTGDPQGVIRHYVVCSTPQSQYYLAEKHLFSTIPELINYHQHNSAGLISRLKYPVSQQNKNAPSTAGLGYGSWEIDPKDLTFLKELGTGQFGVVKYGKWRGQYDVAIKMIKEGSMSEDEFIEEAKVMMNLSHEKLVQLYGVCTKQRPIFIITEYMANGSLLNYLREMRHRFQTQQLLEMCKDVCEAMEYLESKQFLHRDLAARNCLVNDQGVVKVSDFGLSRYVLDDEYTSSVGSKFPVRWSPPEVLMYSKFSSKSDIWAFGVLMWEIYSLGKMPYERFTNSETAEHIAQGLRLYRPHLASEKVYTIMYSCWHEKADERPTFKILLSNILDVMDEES
Summary of the method: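 Single compound injection in mice bearing TMD8 BTK C481S tumors, groups of 2, with blood and tumor sampled at day 0, 4, 7 and sometimes 10. Compound levels measured by UPLC/MS-MS and BTK levels by Meso Scale Discovery.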

[8] = In vivo pharmacokinetic study in mice (i.v. or s.c.), FAC and payload in blood; set-up: species or system mouse; conditions: male, C57/B16, mouse, in vivo, iv; analyte FAC; FAC i.v. dose 10 umol/kg; read-out: FAC AUC-uM.h mouse
Experimental: as §1
(§7) […] Serial 30 µL blood samples were collected via venipuncture of the tail vein in mouse, and via the cannulated jugular vein in rats at defined timepoints to 216 hours (into EDTA coated tubes).
as §3, §4, §5
(§8) For PK experiments, non-tumor bearing mice or rats were treated once (10 mL/kg) with a compound either i.v. or s.c. Serial blood samplings from the tail vein (5-20 μl) were collected during the course of the experiment. For PK/PD experiments in tumor-bearing mice, compound was administered once (10 mL/kg) either i.v. or s.c. Animals were randomized into groups of n=3 and tissue samples were collected at several time points. At the times indicated, animals were anaesthetized by exposure to 2-3% v/v isoflurane in medical oxygen. They were sacrificed without recovering from anesthetic after blood sampling into commercially prepared EDTA coated tubes (Milian, cat #TOM-14C) in order to extract plasma. The tissues were excised, weighted and rapidly frozen in liquid nitrogen. Later, tumors were cryogenic dry pulverized with the CryoPrep™ system (model CP-02, Covaris). For efficacy experiments in ectopic tumor-bearing mice, animals were randomized into groups of n=6 for a mean tumor size of 100 mm^3 and compound was administered either i.v. q3w or s.c. q2w. When implanted in brain, animals were randomized into groups of n=4 for a mean bioluminescence of 1.0-2.0E+06 [p/s]/[ρW/cm^2] and compound was administered i.v. qw. Tumor response were reported with the measures of tumor volumes or bioluminescence from the treatment start. […]

[9] = In vivo pharmacokinetic study in rats (i.v. or s.c.), FAC and payload in blood; set-up: species or system rat
Experimental: as §1, §7, §3, §4, §5, §8

| Compound | Payload C0-uM dog [1] | % Release of degrader after 24 h PBS [2] | Plasma stability (h) PBS [2] | % Release of degrader after 24 h rat [3] | Plasma stability (h) rat [3] | C0 ([4]; read-out: FAC C0-uM cyno) | AUC ([4]; male, cynomolgus monkey, whole blood, iv, read-out: FAC AUC-uM.h cyno) | % Release of degrader after 24 h mouse [5] | Plasma stability (h) mouse [5] | Plasma stability (h) dog [6] | % Release of degrader after 24 h dog [6] | Plasma stability (h) cyno [7] | % Release of degrader after 24 h cyno [7] | Duration of BTK degradation in mouse ≥90% (BTK C481S; i.v., 50 umol/kg) | AUC [8] | C0 ([9]; analyte FAC, FAC i.v. dose 10 umol/kg, read-out: FAC C0-uM rat) | Payload C0-uM Rat ([9]; analyte payload after FAC i.v. dose 10 umol/kg) | AUC ([9]; male, Sprague-Dawley, rat, in vivo, iv, analyte FAC, FAC i.v. dose 10 umol/kg, read-out: FAC AUC-uM.h rat) | Duration of BTK degradation in mouse ≥90% (BTK C481S; i.v., 25 umol/kg) | Duration of BTK degradation in mouse ≥90% (BTK C481S; s.c., 25 umol/kg) |
| --- | --- | --- | --- | --- | --- | --- | --- | --- | --- | --- | --- | --- | --- | --- | --- | --- | --- | --- | --- | --- |
| CCCCCCCCCCCN(C(=O)CCCCCCCCCC(=O)O)[C@@H](CCC(=O)NCCOCCOCCOCCOCCOCCOCCOCCOCCOCCOCCOCCOCCC(=O)NCC(=O)OC(C)(C)c1ccc(C(=O)Nc2cc(F)cc(-c3ncnc4[nH]c(-c5ccc(CCN6CCC7(CC6)CCN(C(=O)c6ccc(OC)c(N8CCC(=O)NC8=O)c6)CC7)cc5)cc34)c2C)c(F)c1)C(=O)O [Example A2, (S)-50-Carboxy-2-(4-((3-(6-(4-(2-(9-(3-(2,4-dioxotetrahydropyrimidin-1(2H)-yl)-4-methoxybenzoyl)-3,9-diazaspiro[5.5]undecan-3-yl)ethyl)phenyl)-7H-pyrrolo[2,3-d]pyrimidin-4-yl)-5-fluoro-2-methylphenyl)carbamoyl)-3-fluorophenyl)-2-methyl-4,7,47,52-tetraoxo-51-undecyl-3,10,13,16,19,22,25,28,31,34,37,40,43-tridecaoxa-6,46,51-triazadohexacontan-62-oic acid] | 0.2 µM | 0.8% | >48 h | 8.9% | 18.1 h | 56.6 µM | 590 µM·h | 3.4% | 12.3 h | >48 h | 7.3% | – | – | – | – | – | – | – | – | – |
| CCCCCCCCCCCN(C(=O)CCCCCCCCCC(=O)O)C(CCC(=O)NCCOCCOCCOCCOCCOCCOCCOCCOCCOCCOCCOCCOCCC(=O)NC(C)(C)CC(=O)OC(C)(C)c1ccc(C(=O)Nc2cc(F)cc(-c3ncnc4[nH]c(-c5ccc(CCN6CCC7(CC6)CCN(C(=O)c6ccc(OC)c(N8CCC(=O)NC8=O)c6)CC7)cc5)cc34)c2C)c(F)c1)C(=O)O (stereo not shown) [Example A18, 51-Carboxy-2-(4-((3-(6-(4-(2-(9-(3-(2,4-dioxotetrahydropyrimidin-1(2H)-yl)-4-methoxybenzoyl)-3,9-diazaspiro[5.5]undecan-3-yl)ethyl)phenyl)-7H-pyrrolo[2,3-d]pyrimidin-4-yl)-5-fluoro-2-methylphenyl)carbamoyl)-3-fluorophenyl)-2,6,6-trimethyl-4,8,48,53-tetraoxo-52-undecyl-3,11,14,17,20,23,26,29,32,35,38,41,44-tridecaoxa-7,47,52-triazatrihexacontan-63-oic acid] | 0.3 µM | 0.6% | >48 h | 0.2% | >48 h | – | – | 0.8% | >48 h | >48 h | 0.3% | >48 h | 0.4% | <4 days | – | – | – | – | – | – |
| CCCCCCCCCCCN(C(=O)CCCCCCCCCC(=O)O)C(CCC(=O)NCCOCCOCCOCCOCCOCCOCCOCCOCCOCCOCCOCCOCCC(=O)NCc1ccc(CC(=O)OC(C)(C)c2ccc(C(=O)Nc3cc(F)cc(-c4ncnc5[nH]c(-c6ccc(CCN7CCC8(CC7)CCN(C(=O)c7ccc(OC)c(N9CCC(=O)NC9=O)c7)CC8)cc6)cc45)c3C)c(F)c2)cc1)C(=O)O (stereo not shown) [Example A23, 46-Carboxy-1-(4-(2-((2-(4-((3-(6-(4-(2-(9-(3-(2,4-dioxotetrahydropyrimidin-1(2H)-yl)-4-methoxybenzoyl)-3,9-diazaspiro[5.5]undecan-3-yl)ethyl)phenyl)-7H-pyrrolo[2,3-d]pyrimidin-4-yl)-5-fluoro-2-methylphenyl)carbamoyl)-3-fluorophenyl)propan-2-yl)oxy)-2-oxoethyl)phenyl)-3,43,48-trioxo-47-undecyl-6,9,12,15,18,21,24,27,30,33,36,39-dodecaoxa-2,42,47-triazaoctapentacontan-58-oic acid] | 0.59 µM | 0.2% | >48 h | 1.1% | >48 h | – | – | 5.8% | >48 h | >48 h | 0.8% | >48 h | 0.6% | – | 856 µM·h | – | – | – | – | – |
| COc1ccc(C(=O)N2CCC3(CCN(CCc4ccc(-c5cc6c(-c7cc(F)cc(NC(=O)c8ccc(C(C)(C)OC(=O)CNC(=O)CCOCCOCCOCCOCCOCCOCCOCCOCCOCCOCCOCCOCCNC(=O)C(CCCCCCCCCCCCCCP(=O)(O)O)(CCCCCCCCCCCCCCP(=O)(O)O)C(=O)O)cc8F)c7C)ncnc6[nH]5)cc4)CC3)CC2)cc1N1CCC(=O)NC1=O [Example A28, 2-(4-((3-(6-(4-(2-(9-(3-(2,4-dioxotetrahydropyrimidin-1(2H)-yl)-4-methoxybenzoyl)-3,9-diazaspiro[5.5]undecan-3-yl)ethyl)phenyl)-7H-pyrrolo[2,3-d]pyrimidin-4-yl)-5-fluoro-2-methylphenyl)carbamoyl)-3-fluorophenyl)-2-methyl-4,7,47-trioxo-48,48-bis(14-phosphonotetradecyl)-3,10,13,16,19,22,25,28,31,34,37,40,43-tridecaoxa-6,46-diazanonatetracontan-49-oic acid] | – | – | – | – | – | – | – | – | – | – | – | – | – | – | – | 57 µM | 0.21 µM | 704 µM·h | 10 days | 10 days |

Source: patent US20240216513A1, “FATTY ACID-BIFUNCTIONAL DEGRADER CONJUGATES AND THEIR METHODS OF USE” (Novartis AG, priority 2021, published 2024)
